Results taken from patent US7691628, “Use of Rev-erb family of receptors in screening” (Merck Patent GmbH).

Experiments:
Conditions in all cases: tags: pSG5-hRev-erbα, TnT T7 rabbit reticulocyte lysate; label: 32P
[1] = target: T1, Rev-erb alpha (NR1D1) (Homo sapiens, UniProt P20393 P20393:1-614); assay: EMSA; two complexes, monomer and dimer; 10 mM Hepes, 80 mM KCl, polydIdC
T1 sequence: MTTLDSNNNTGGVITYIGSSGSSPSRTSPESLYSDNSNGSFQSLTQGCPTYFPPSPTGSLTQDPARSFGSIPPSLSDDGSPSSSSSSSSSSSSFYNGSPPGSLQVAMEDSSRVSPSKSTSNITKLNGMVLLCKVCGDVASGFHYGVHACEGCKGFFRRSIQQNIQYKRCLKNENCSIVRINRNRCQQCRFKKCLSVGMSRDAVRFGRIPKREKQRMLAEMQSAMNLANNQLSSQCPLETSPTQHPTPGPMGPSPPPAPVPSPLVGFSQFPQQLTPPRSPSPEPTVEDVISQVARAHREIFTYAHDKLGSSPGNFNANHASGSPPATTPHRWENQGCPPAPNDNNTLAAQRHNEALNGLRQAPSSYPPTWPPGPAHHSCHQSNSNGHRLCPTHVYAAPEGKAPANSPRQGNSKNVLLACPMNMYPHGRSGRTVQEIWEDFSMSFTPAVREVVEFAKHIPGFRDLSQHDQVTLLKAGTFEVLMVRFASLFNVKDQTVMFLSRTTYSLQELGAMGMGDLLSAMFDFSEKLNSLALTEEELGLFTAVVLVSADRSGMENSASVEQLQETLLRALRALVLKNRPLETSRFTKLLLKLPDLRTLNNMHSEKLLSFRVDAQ

[2] = target: T1, Rev-erb alpha (NR1D1); assay: EMSA; data not illustrated
[3] = target: T1, Rev-erb alpha (NR1D1); assay: EMSA; no significant retardation

B1: Rev-DR2 (dsDNA)
DNA 1: GATCCGGAAAAGTGTGTCACTGGGGCACGA
DNA 2: GATCTCGTGCCCCAGTGACACACTTTTCCG
binding result [1]: binds

B2: HCIII-TaTaKO (dsDNA)
DNA 1: GATCGATATAAAACAGGCAGGAACCCTC
DNA 2: GATCGAGGGTTCCTGCCTGTTTTATATC
binding result [2]: no binding

B3: C3P-DR2 (-104/-72) (dsDNA)
DNA 1: GATCCTCATCTCCACTGGTCAGCAGGTGACCTTTGC
DNA 2: GATCGGCAAAGGTCACCTGCTGACCAGTGGAGATGAG
binding result [3]: no binding
